This is an account of results in article PMC4395418, “The Aspartate-Less Receiver (ALR) Domains: Distribution, Structure and Function” (PLoS Pathogens, 2015).

Residue numbers refer to the chain shown, from its start.

Data set [1] concerns the molecule itself. Nature of the data set: SEC; purified 15N-labelled RitRALR (ALR domain only) wild-type and Ala mutants; oligomeric state.
Data set [2] deals with the molecule itself. Nature of the data set: SEC; RitRFL wild-type and mutants; Agilent 1220 HPLC, BioBasic SEC-300A column, 50 mM TRIS pH 8.0, 150 mM NaCl, 10 mM DTT; proteins pre-treated with 10 mM DTT; 0.5 ml/min, ambient temperature. On the technique in general: Size exclusion chromatography separates by hydrodynamic size, large species first.
The next data set concerns the target RitR FL L90A (Streptococcus pneumoniae R800, UniProt A0ACD7PPZ9 1-229, L90A). Nature of the data set: EMSA; 20 mM HEPES pH 7.2, 5 mM MgCl2, 1 mM CaCl2, 0.1 mM EDTA, 10 mM DTT, 10% glycerol, 0.5 uM DNA, 800 ng poly(dI-dC) in 20 ul, room temperature 10 min; 4% native TAE PAGE. The conditions noted are these: protein: recombinant; tags: His6-SUMO removed by ULP1; chain copies: 2; label: 5' HEX on strand 1; blunt. In general terms: A gel shift assay detects complexes by their altered migration in electrophoresis.

The target in the next data set is RitR FL L86A (Streptococcus pneumoniae R800, UniProt A0ACD7PPZ9 1-229, L86A). The description is as above. The conditions noted are these: protein: recombinant; tags: His6-SUMO removed by ULP1; chain copies: 2; label: 5' HEX on strand 1; blunt.
In another data set the target is RitR FL F96G (Streptococcus pneumoniae R800, UniProt A0ACD7PPZ9 1-229, F96G). The description is as above. The following applies: protein: recombinant; tags: His6-SUMO removed by ULP1; chain copies: 2; label: 5' HEX on strand 1; blunt.
The next data set deals with RitR FL L86A/V93A (Streptococcus pneumoniae R800, UniProt A0ACD7PPZ9 1-229, L86A;V93A). The description is as above. The following applies: protein: recombinant; tags: His6-SUMO removed by ULP1; chain copies: 2; label: 5' HEX on strand 1; blunt.
The target in a further data set is RitR FL wild-type (Streptococcus pneumoniae R800, UniProt A0ACD7PPZ9 1-229). The data set can be described thus: EMSA; up to 6.6 uM protein; 20 mM HEPES pH 7.2, 5 mM MgCl2, 1 mM CaCl2, 0.1 mM EDTA, 10 mM DTT, 10% glycerol, 0.5 uM DNA, 800 ng poly(dI-dC) in 20 ul, room temperature 10 min; 4% native TAE PAGE. The following applies: protein: recombinant; tags: His6-SUMO removed by ULP1; chain copies: 2; label: 5' HEX on strand 1; blunt.

In another data set the target is RitR FL Y100A (Streptococcus pneumoniae R800, UniProt A0ACD7PPZ9 1-229, Y100A). Nature of the data set: EMSA; binding seen at 0.22 uM protein; 20 mM HEPES pH 7.2, 5 mM MgCl2, 1 mM CaCl2, 0.1 mM EDTA, 10 mM DTT, 10% glycerol, 0.5 uM DNA, 800 ng poly(dI-dC) in 20 ul, room temperature 10 min; 4% native TAE PAGE. The conditions noted are these: protein: recombinant; tags: His6-SUMO removed by ULP1; chain copies: 2; label: 5' HEX on strand 1; blunt.

For a further data set, the target named is RitR FL D81A (Streptococcus pneumoniae R800, UniProt A0ACD7PPZ9 1-229, D81A). Described as above. The conditions noted are these: protein: recombinant; tags: His6-SUMO removed by ULP1; chain copies: 2; label: 5' HEX on strand 1; blunt.

Broadly, the stoichiometry N is the number of molecules, sites or subunits per partner or assembly.

B1: RitR ALR (REC) receiver domain, Leu86 to Ala mutant (domain or fragment)
chain: MGKRILLLEKERNLAHFLSLELQKEQYRVDLVEEGQKALSMALQTDYDLILLNVNLGDMMAQDFAEKLSRTKPASVIMILDHWEDAQEELEVVQRFAVSYIYKPVLIENLVARISAIFRGRDFIG
notes: RitR, Streptococcus pneumoniae strain R800, ALR (REC) domain, amino acids Met1-Ile124, Ala substitution of Leu86; extra C-terminal glycine residue; PDB 4LZL is the wild-type parent of the same limits; also called RitRALR Leu86 mutant; source: E. coli BL21 DE3, 15N-labelled in M9 medium, purified (Ni-NTA, ULP1 cleavage, subtractive Ni-NTA); not shown: His6, N-terminal, cleaved; SUMO, N-terminal, …
Consider B1, for which, in data set [1], the “stoichiometry N” value turned out to be 2.

B2: RitR ALR (REC) receiver domain, Leu90 to Ala mutant (domain or fragment)
chain: B1 chain with A86L, L90A
notes: RitR, Streptococcus pneumoniae strain R800, ALR (REC) domain, amino acids Met1-Ile124, Leu90 changed to Ala; extra C-terminal glycine residue; PDB 4LZL is the wild-type parent of the same limits; also called RitRALR Leu90>Ala mutant; Leu90 mutant; source: E. coli BL21 DE3, 15N-labelled in M9 medium, purified (Ni-NTA, ULP1 cleavage, subtractive Ni-NTA); not shown: His6, N-terminal, cleaved; SUMO, …
As to B2, in [1], the “stoichiometry N” value is 2.

B3: RitR full-length, Leu86 to Ala Gate mutant (natural protein)
chain: MGKRILLLEKERNLAHFLSLELQKEQYRVDLVEEGQKALSMALQTDYDLILLNVNLGDMMAQDFAEKLSRTKPASVIMILDHWEDAQEELEVVQRFAVSYIYKPVLIENLVARISAIFRGRDFIDQHCSLMKVPRTYRNLRIDVEHHTVYRGEEMIALTRREYDLLATLMGSKKVLTREQLLESVWKYESATETNIVDVYIRYLRSKLDVKGQKSYIKTVRGVGYTMQE
notes: RitR, Streptococcus pneumoniae strain R800, full-length, Gate residue Leu86 changed to Ala; also called RitRFL Leu86 mutant; source: E. coli BL21(DE3) or BL21(DE3)-Star, purified (Ni2+ agarose, ULP1 cleavage, subtractive Ni2+ column); not shown: His6, N-terminal, cleaved; SUMO, N-terminal, cleaved
In the case of B3, the “stoichiometry N” value in data set [2] turned out to be 2.

B4: RitR full-length, Leu86/Val93 double mutant (natural protein)
chain: B3 chain with V93A
notes: RitR, Streptococcus pneumoniae strain R800, full-length, Val93 mutant combined with a Leu86 mutation (Ala); also called RitRFL Leu86/Val93 double mutant; source: E. coli BL21(DE3) or BL21(DE3)-Star, purified (Ni2+ agarose, ULP1 cleavage, subtractive Ni2+ column); not shown: His6, N-terminal, cleaved; SUMO, N-terminal, cleaved
Turning to B4, the “stoichiometry N” value in data set [2] was determined as 2.

B5: RitR full-length, Leu90 to Ala Gate mutant (natural protein)
chain: B3 chain with A86L, L90A
notes: RitR, Streptococcus pneumoniae strain R800, full-length, Gate residue Leu90 changed to Ala; also called RitRFL Leu90 mutant; source: E. coli BL21(DE3) or BL21(DE3)-Star, purified (Ni2+ agarose, ULP1 cleavage, subtractive Ni2+ column); not shown: His6, N-terminal, cleaved; SUMO, N-terminal, cleaved
Take B5: the “stoichiometry N” value in data set [2] was 2.

B6: RitR full-length, Val93 to Ala Gate mutant (natural protein)
chain: B3 chain with A86L, V93A
notes: RitR, Streptococcus pneumoniae strain R800, full-length, Ala substitution of Gate residue Val93; also called RitRFL Val93 mutant; source: E. coli BL21(DE3) or BL21(DE3)-Star, purified (Ni2+ agarose, ULP1 cleavage, subtractive Ni2+ column); not shown: His6, N-terminal, cleaved; SUMO, N-terminal, cleaved
For B6, in data set [2], the “stoichiometry N” value amounted to 2.

B7: BS2 33-mer (dsDNA)
DNA 1: ATTTTATTGACAGATTAGAAAAATAATGTTACA
DNA 2: TGTAACATTATTTTTCTAATCTGTCAATAAAAT
Consider B7, for which the binding result is reported as “binds” in the data set with RitR FL L90A; “binds” in the data set with RitR FL L86A; “no binding” in the data set with RitR FL F96G; “binds” in the data set with RitR FL L86A/V93A; “no binding” with RitR FL wild-type; “binds” with RitR FL Y100A. Besides, the binding result with RitR FL D81A was “binds”.
